How the values were obtained:
[1] = target: T1, human recombinant mesothelin (r-MSLN) (human, UniProt Q13421 296-598, limits assumed); test: BLI (BLItz, AR2G biosensor), unlabeled scFv against r-MSLN
T1 construct: also called recombinant MSLN; antigen r-MSLN

[2] = target: T2, mesothelin (MSLN) expressed on human cancer cell lines (human, UniProt Q13421 296-598); test: flow cytometry on 22Rv1 cells; grade of MFI ratio to control (+ = 4.9-1.5)
T2 construct: whole, on cells; also called MSLN expressed in cancer cells
T2 sequence (Q13421 other isoform, or with tags, fused parts or gaps limits assumed): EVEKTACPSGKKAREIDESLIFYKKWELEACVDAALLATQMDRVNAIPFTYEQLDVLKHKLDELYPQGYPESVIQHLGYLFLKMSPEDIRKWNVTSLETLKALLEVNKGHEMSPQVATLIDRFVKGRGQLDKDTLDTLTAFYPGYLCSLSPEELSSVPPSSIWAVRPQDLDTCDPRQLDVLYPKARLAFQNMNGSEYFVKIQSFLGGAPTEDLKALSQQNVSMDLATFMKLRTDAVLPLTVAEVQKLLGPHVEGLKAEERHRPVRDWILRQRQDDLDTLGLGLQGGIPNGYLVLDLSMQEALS
Protocol: (§1) A total of 28 cell lines were used for FCM analysis. The “MSLN exp ref” column indicates positive MSLN expression shown in previous studies. The “MSLN exp FCM” column indicates the ratio of the mean fluorescence intensity […] of the control; a ratio of 5 or more was indicated as “++,” a ratio of 4.9-1.5 was indicated as “+,” and a ratio of 1.4 or less is indicated as “−.”
(§2) The human cancer cell lines (Table 1) were treated with Cell Dissociation Buffer, enzyme-free, PBS (Gibco/Life Technologies, CA, USA) and harvested as single-cell suspensions. 1×10⁶ cells were washed once with cold PBS containing 2% FBS and 1 mM EDTA, and a full-length anti-human MSLN antibody, each anti-human MSLN cp3-scFv clone, or each His-tag scFv clone was used as a primary antibody. For the full-length anti-human MSLN antibody, an anti-KLH antibody (IgG2b isotype control) was used as a negative control, and an Alexa Fluor 488-labeled goat anti-mouse IgG antibody was used as a secondary antibody. […] The mean value of the fluorescence intensity (excluding the dead cell population) was obtained using BD FACSDiva software and calculated using Microsoft Excel.

[3] = target: T2, mesothelin (MSLN) expressed on human …; test: flow cytometry on NCI-N87 cells; grade of MFI ratio to control (++ = 5 or more)
Protocol: as §1, §2

[4] = target: T2, mesothelin (MSLN) expressed on human …; test: flow cytometry on HEC-1-A cells; grade of MFI ratio to control (+ = 4.9-1.5)
Protocol: as §1, §2

[5] = target: T2, mesothelin (MSLN) expressed on human …; test: flow cytometry on SiHa cells; grade of MFI ratio to control (++ = 5 or more)
Protocol: as §1, §2

[6] = target: T2, mesothelin (MSLN) expressed on human …; test: flow cytometry on BxPC-3 cells; grade of MFI ratio to control (+ = 4.9-1.5)
Protocol: as §1, §2

[7] = target: T2, mesothelin (MSLN) expressed on human …; test: flow cytometry on MKN45 cells; grade of MFI ratio to control (+ = 4.9-1.5)
Protocol: as §1, §2

[8] = target: T2, mesothelin (MSLN) expressed on human …; test: flow cytometry on NCI-H596 cells; grade of MFI ratio to control (+ = 4.9-1.5)
Protocol: as §1, §2

[9] = target: T2, mesothelin (MSLN) expressed on human …; test: flow cytometry on CFPAC-1 cells; grade of MFI ratio to control (+ = 4.9-1.5)
Protocol: as §1, §2

[10] = target: T2, mesothelin (MSLN) expressed on human …; test: flow cytometry on NCI-H226 cells; grade of MFI ratio to control (++ = 5 or more)
Protocol: as §1, §2

[11] = target: T2, mesothelin (MSLN) expressed on human …; test: flow cytometry on SK-OV-3 cells; grade of MFI ratio to control (+ = 4.9-1.5)
Protocol: as §1, §2

[12] = target: T2, mesothelin (MSLN) expressed on human …; test: flow cytometry on OVCAR-3 cells; grade of MFI ratio to control (++ = 5 or more)
Protocol: as §1, §2

[13] = target: T2, mesothelin (MSLN) expressed on human …; test: flow cytometry on MKN74 cells; grade of MFI ratio to control (+ = 4.9-1.5)
Protocol: as §1, §2

[14] = target: T2, mesothelin (MSLN) expressed on human …; test: flow cytometry on Hela cells; grade of MFI ratio to control (+ = 4.9-1.5)
Protocol: as §1, §2

[15] = target: T1, human recombinant mesothelin (r-MSLN); test: BLI (BLItz, AR2G biosensor), scFv after DFO modification against r-MSLN
[16] = target: T1, human recombinant mesothelin (r-MSLN); test: BLI (BLItz, AR2G biosensor), scFv after 89Zr labeling against r-MSLN
Protocol: DFO modification to each His-tag scFv was performed by incubation in bicarbonate buffer at a pH of 9.0 at 37° C. for 1 hour so that the ratio of dissolved chelating agent deferoxamine (p-SCN-Bn-DFO) to His-tag scFv was 3:1. ⁸⁹Zr was produced with a cyclotron (HM-12 cyclotron, Sumitomo Heavy Industries Ltd., Tokyo, Japan), and ⁸⁹Zr-oxalate was obtained. ⁸⁹Zr-oxalate, Na₂CO₃ (2M), and HEPES (0.5 M) were mixed so that the ratio of ⁸⁹Zr-oxalate to Na₂CO₃ (2M) to HEPES (0.5 M) was 2:1:10 and adjusted to a pH of 7.0, and the mixture was mixed with each DFO-modified His-tag scFv clone in which the solvent was replaced with gentisic acid physiological saline (5 mg/mL), followed by incubation at 37° C. for 30 minutes, thereby obtaining ⁸⁹Zr-DFO-scFvs. Unbound ⁸⁹Zr was removed by ultrafiltration using an Amicon Ultra 10K centrifugal filter. The radiochemical purity was determined by thin-layer chromatography-autoradiography (TLC-ARG) and HPLC (LC-20, Shimadzu Co., Kyoto, Japan). […] The in vitro stability of the radiolabeled scFvs after incubation in 50% human plasma/PBS at 37° C. for 6 hours was also analyzed. […] Immediately after mixing and after 6-hour incubation, a portion of the mixture of the radiolabeled scFv and the plasma was measured at 230 nm by HPLC, and the radioactivity was measured with a GABI star (Raytest, Straubenhardt, Germany). […]

T1 sequence (Q13421 other isoform, or with tags, fused parts or gaps limits assumed): as above

B1: anti-human MSLN His-tag scFv clone H1a050 (scFv)
scFv: SYELTQPPSVSVSPGQTARITCSGNALPKQYAYWYQQKPGQAPVLMIYKDSERPSGIPERFSGSSSGTTVTLTISGVQAEDEADYYCQSADSSHTYKVFGGGTKLTVLGGGGSGGGGSGGGGSGGGGSEVQLVQSGGGLVQPDRSLRLSCAASGFTFDDYAMHWVRQAPGKGLEWVSGISWNSGSIGYADSVKGRFTISRDNAKNSLYLQMNSLRAEDTALYYCAKDLGSYYGSGSGMDVWGQGTTVTVSSGG
notes: Unlabeled His-tag scFv expressed in CHO cells; also called His-tag scFv H1a050; His-Tag-scFv H1a050
Which results are given for B1?
Kd [1]: 4.68 nM; ratio of MFI of scFv clone H1a050 to MFI of control (flow cytometry) [2]: 1.5 to 4.9 ratio; ratio of MFI of scFv clone H1a050 to MFI of control (flow cytometry) [3]: ≥ 5 ratio; ratio of MFI of scFv clone H1a050 to MFI of control (flow cytometry) [4]: 1.5 to 4.9 ratio; ratio of MFI of scFv clone H1a050 to MFI of control (flow cytometry) [5]: ≥ 5 ratio; ratio of MFI of scFv clone H1a050 to MFI of control (flow cytometry) [6]: 1.5 to 4.9 ratio; ratio of MFI of scFv clone H1a050 to MFI of control (flow cytometry) [7]: 1.5 to 4.9 ratio; ratio of MFI of scFv clone H1a050 to MFI of control (flow cytometry) [8]: 1.5 to 4.9 ratio; ratio of MFI of scFv clone H1a050 to MFI of control (flow cytometry) [9]: 1.5 to 4.9 ratio; ratio of MFI of scFv clone H1a050 to MFI of control (flow cytometry) [10]: ≥ 5 ratio; ratio of MFI of scFv clone H1a050 to MFI of control (flow cytometry) [11]: 1.5 to 4.9 ratio; ratio of MFI of scFv clone H1a050 to MFI of control (flow cytometry) [12]: ≥ 5 ratio; ratio of MFI of scFv clone H1a050 to MFI of control (flow cytometry) [13]: 1.5 to 4.9 ratio; ratio of MFI of scFv clone H1a050 to MFI of control (flow cytometry) [14]: 1.5 to 4.9 ratio

B2: DFO-modified His-tag scFv H1a050 (scFv)
scFv: B1 scFv
modifications: deferoxamine (p-SCN-Bn-DFO) conjugated, chelator to scFv ratio 3:1 in the reaction; sites not stated
notes: Same polypeptide as H1a050 His-tag scFv, carrying the DFO chelator; also called H1a050 after DFO modification; DFO-His-tag-scFv H1a050
With B2 as the binder, how does the Kd [15] read?
The Kd was 3.38 nM.

B3: 89Zr-DFO-scFv H1a050 (scFv)
scFv: B1 scFv
modifications: deferoxamine (p-SCN-Bn-DFO) conjugated and loaded with 89Zr; sites not stated
notes: Same polypeptide as H1a050 His-tag scFv, DFO-modified and 89Zr-labeled; also called H1a050 after 89Zr labeling; 89Zr-labeled DFO-His-tag-scFv H1a050
Which Kd [16] does the source give for B3 here?
The Kd was 46.2 nM.

B4: anti-human MSLN His-tag scFv clone H2a064 (scFv)
scFv: SYELTQPPSVSVSPGQTARITCSGDALPKHYASWYQQKPGQAPVLLIYKDTERPSGIPERFSGSSSGTTVTLTISGVQAEDEADYYCQSADSSVTVVFGGGTKLTVLGGGGSGGGGSGGGGSGGGGSQVQLVQSGGGLVQPGRSLRLSCAASGFTFDDYAMHWVRQAPGKGLEWVSGISWNSGSIGYADSVKGRFTISRDNAKNSLYLQMNSLRAEDTALYYCAKDIGSSGWYGAFDIWGQGTTVTVSSGG
notes: Unlabeled His-tag scFv expressed in CHO cells; also called His-tag scFv H2a064; His-Tag-scFv H2a064
Which Kd [1] does the source give for B4 here?
Its Kd is 59.6 nM.

B5: DFO-modified His-tag scFv H2a064 (scFv)
scFv: B4 scFv
modifications: deferoxamine (p-SCN-Bn-DFO) conjugated, chelator to scFv ratio 3:1 in the reaction; sites not stated
notes: Same polypeptide as H2a064 His-tag scFv, carrying the DFO chelator; also called H2a064 after DFO modification; DFO-His-tag-scFv H2a064
How did the Kd [15] turn out when B5 was run?
The Kd was 114 nM.

B6: 89Zr-DFO-scFv H2a064 (scFv)
scFv: B4 scFv
modifications: deferoxamine (p-SCN-Bn-DFO) conjugated and loaded with 89Zr; sites not stated
notes: Same polypeptide as H2a064 His-tag scFv, DFO-modified and 89Zr-labeled; also called H2a064 after 89Zr labeling; 89Zr-labeled DFO-His-tag-scFv H2a064
How did the Kd [16] turn out when B6 was run?
Its Kd is 78.2 nM.

From patent US20200324001A1 (NATIONAL UNIVERSITY CORPORATION OKAYAMA UNIVERSITY, published 2020)
